Measurements as given in article PMC10199020 (Nature Communications, 2023).
“Also recorded” adds a separate entry of the source.

Columns and labels:
[1] = biological target: T1, NL-IL23R and IL12Rβ1 (IL-23 receptor) on HEK293T cells (Homo sapiens, UniProt P42701+Q5VWK5); experiment: IL23-TMR NanoBRET competition assay; type: binding; parameters: Inhibition of IL23-TMR binding (Mean): unit not given here; settings: for Inhibition of IL23-TMR binding (Mean): 300 pM IL23-TMR
T1 construct: expressed in transfected cells; host or cells: HEK293T (ATCC CRL-3216), transient transfection
Protocol: Schematic created with Biorender.com. IL23R is shown in orange, IL12Rβ1 in purple, IL23p19 in blue, IL12p40 in green and the presence of a TAMRA fluorophore by a pink star. […] In b and c, data are mean ± SEM from 5 independent experiments conducted in either duplicate or triplicate. Details on absolute number of data points included for each concentration are provided in the associated Source Data file.
(§1) Transient transfections for experiments outlined in Fig. 6 were conducted by seeding 100 μL of 2 × 10^5 cells/ml concentrated HEK293T cells into poly-D-lysine (PDL) coated white 96 well clear bottom assay microplates (Greiner) and incubating overnight. The following day transfection mixes were made up that contained a 4:1 ratio of IL23R to IL12Rβ1 constructs to a total concentration of 100 ng per well with a 0.3 μL per well of FuGENE HD transfection reagent (Promega) in OptiMEM (Gibco). These mixtures were incubated for 10 min before being added to the plate at 5 μL per well. The cells were then incubated overnight to allow expression. For all other experiments 2 mL containing 4 × 10^5 cells were seeded into 6 well plates and incubated 5 h before being transiently transfected with 100 μL per well of a transfection mix containing 2 μg of DNA and 6 μL of FuGENE HD. These cells were then incubated overnight before being re-suspended the following day and seeded into PDL coated white assay microplates at 100 μL containing 3 × 10^4 transfected cells. Cells were then incubated overnight before the experiment. Estimates of total expression levels for the different NL-constructs were made by comparing the luminescence levels achieved to that of a NanoLuciferase standard curve measured under the same conditions (Supplementary Fig. 1).
Media was removed from white 96-well microplates containing transfected cells and replaced with fluoroprobe in the presence or absence of antagonist in 50 μL Hanks Balanced Salt Solution (HBSS) with 1 mg/mL BSA (Merck).
(§2) Antagonist competition data were fit with the equation:4 Y=Bmin+Bmax−Bmin/1+10^(LogXC50−[A])C Where ‘Bmax’ is the maximum BRET signal, ‘Bmin’ is the minimum BRET signal, ‘LogXC50’ is the log of the 50% inhibiting concentration of antagonist, ‘[A]’ is the concentration of antagonist and ‘C’ is the Hill slope.

[2] = biological target: T1, NL-IL23R and IL12Rβ1 (IL-23 receptor) on HEK293T cells; experiment: P630-TMR NanoBRET competition assay; type: binding; settings: for Displacement of 75 nM P630-TMR (Mean): Fig. 5a
Protocol: as §1
Media was removed from white 96-well microplates containing transfected cells and replaced with fluoroprobe in the presence or absence of antagonist in 50 μL Hanks Balanced Salt Solution (HBSS) with 1 mg/mL BSA (Merck). After a 1-hour incubation at 37 °C without CO2, 5 μL of HBSS containing 77 μM furimizine was added to each well (final concentration 7 μM), the plate incubated for 5-minutes and the BRET signal measured using a PheraStar FS plate reader (BMG Labtech; data acquisition software version 5.41; MARS analysis software version 3.32) with a 450 ± 30 nm and >550 nm long pass filters.
as §2

T1 sequence (Q5VWK5 24-629, other chains not shown): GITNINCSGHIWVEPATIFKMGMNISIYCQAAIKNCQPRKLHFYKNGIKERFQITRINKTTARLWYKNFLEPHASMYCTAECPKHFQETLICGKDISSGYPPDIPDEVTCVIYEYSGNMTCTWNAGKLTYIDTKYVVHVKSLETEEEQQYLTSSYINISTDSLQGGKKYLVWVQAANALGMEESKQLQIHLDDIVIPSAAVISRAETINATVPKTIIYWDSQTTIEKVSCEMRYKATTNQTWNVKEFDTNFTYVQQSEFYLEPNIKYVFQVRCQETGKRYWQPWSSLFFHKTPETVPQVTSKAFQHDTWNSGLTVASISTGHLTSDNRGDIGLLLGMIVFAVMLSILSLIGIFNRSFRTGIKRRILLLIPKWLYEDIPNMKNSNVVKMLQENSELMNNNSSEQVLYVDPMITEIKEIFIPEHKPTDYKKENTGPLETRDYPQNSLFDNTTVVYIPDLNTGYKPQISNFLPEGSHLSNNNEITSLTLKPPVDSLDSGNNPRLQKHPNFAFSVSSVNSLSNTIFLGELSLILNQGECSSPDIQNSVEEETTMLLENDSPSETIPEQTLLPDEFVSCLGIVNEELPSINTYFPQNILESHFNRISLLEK

Sequence: TEEEQQLY [octapeptide reported to be a negative allosteric modulator (NAM) of the IL-23 receptor]
- Inhibition of IL23-TMR binding (Mean) ([1]; [TEEEQQLY] -4.56864 logM): 13.433
- Inhibition of IL23-TMR binding (Mean) ([1]; [TEEEQQLY] -5.04576 logM): 6.927
- Inhibition of IL23-TMR binding (Mean) ([1]; [TEEEQQLY] -5.52288 logM): 9.9603
- Inhibition of IL23-TMR binding (Mean) ([1]; [TEEEQQLY] -6 logM): 11.7979
- Inhibition of IL23-TMR binding (Mean) ([1]; [TEEEQQLY] -6.47712 logM): 6.708
- Inhibition of IL23-TMR binding (Mean) ([1]; [TEEEQQLY] -6.95424 logM): 2.6729
- Inhibition of IL23-TMR binding (Mean) ([1]; [TEEEQQLY] -7.43136 logM): 2.475
- Inhibition of IL23-TMR binding (Mean) ([1]; [TEEEQQLY] -7.90849 logM): 7.532
- Displacement of IL23-TMR ([1]; NL-IL23R and IL12Rβ1): not to displace IL23-TMR; also recorded: Did not displace labelled probe
- Displacement of 75 nM P630-TMR (Mean) ([2]; [TEEEQQLY] -4.09691 logM): -0.7672
- Displacement of 75 nM P630-TMR (Mean) ([2]; [TEEEQQLY] -4.79588 logM): 3.824
- Displacement of 75 nM P630-TMR (Mean) ([2]; [TEEEQQLY] -5.49485 logM): 1.157
- Displacement of 75 nM P630-TMR (Mean) ([2]; [TEEEQQLY] -6.19382 logM): -2.412
- Displacement of 75 nM P630-TMR (Mean) ([2]; [TEEEQQLY] -6.89279 logM): -1.937
- Displacement of 75 nM P630-TMR (Mean) ([2]; [TEEEQQLY] -7.59176 logM): -4.432
- Displacement of 75 nM P630-TMR (Mean) ([2]; [TEEEQQLY] -8.29073 logM): -0.4835
- Displacement of 75 nM P630-TMR (Mean) ([2]; [TEEEQQLY] -8.9897 logM): -1.857
- Displacement of P630-TMR ([2]; NL-IL23R and IL12Rβ1): did not displace P630-TMR; also recorded: Did not displace labelled probe
